# Measured values: doi:10.1101/2020.03.05.978833
# Tested on: FasR wild-type (His6, EMSA) (Mycobacterium tuberculosis H37Rv)
# Test: EMSA
substance,measurement,value
PfasMT promoter fragment (398 bp),Kd,83 nM
